Assay results taken from patent publication US20240182897.

Test system: T1, pegylated peptide-linked C12-miR (P.5-L-C12-miR)
T1 sequence: KGDGG

## lysosomal enzyme Cathepsin D (Cat. No. C8696, Sigma-Aldrich)
  enzyme cleavage in vitro, size reduction on 15% acrylamide/8 M urea gel: the pegylated peptide-linked C12-miR (P.5-L-C12-miR) was cleaved by lysosomal cathepsin D and resulted in a smaller fragment
